According to patent US20240325555A1 (LANOVA MEDICINES, published 2024):
Changes are numbered by the printed parent chain. One block for each binder: values may come before it.

Assays:
[1] = target: cynomolgus LIV-1 (cynomolgus, UniProt A0A2K5WH46 30-741); test: FACS, HEK293/Cyno_LIV-1 cells
Procedure: (§1) In this example, cell based binding of chimeric Abs on human and cyno LIV-1 over-expressing HEK 293 cells were assessed using flow cytometry.
(§2) Briefly, cells were incubated with chimeric Abs (from 100 nM, 5 folds dilution, 8 points). After incubation at 4° C. for 60 minutes, the cells were washed with 2% FBS/PBS buffer twice, then stained with fluorescent conjugated secondary antibody at 4° C. for 30 minutes. After that the cells were washed twice and resuspended in 80 μL of 2% FBS/PBS buffer. Fluorescent signal of binding was detected using Agilent. The EC50 was calculated using the GraphPad Software (LaJolla, CA).

[2] = target: T1, human LIV-1 (human, UniProt Q13433 29-755); test: cell-based or functional assay
T1 sequence (looked up): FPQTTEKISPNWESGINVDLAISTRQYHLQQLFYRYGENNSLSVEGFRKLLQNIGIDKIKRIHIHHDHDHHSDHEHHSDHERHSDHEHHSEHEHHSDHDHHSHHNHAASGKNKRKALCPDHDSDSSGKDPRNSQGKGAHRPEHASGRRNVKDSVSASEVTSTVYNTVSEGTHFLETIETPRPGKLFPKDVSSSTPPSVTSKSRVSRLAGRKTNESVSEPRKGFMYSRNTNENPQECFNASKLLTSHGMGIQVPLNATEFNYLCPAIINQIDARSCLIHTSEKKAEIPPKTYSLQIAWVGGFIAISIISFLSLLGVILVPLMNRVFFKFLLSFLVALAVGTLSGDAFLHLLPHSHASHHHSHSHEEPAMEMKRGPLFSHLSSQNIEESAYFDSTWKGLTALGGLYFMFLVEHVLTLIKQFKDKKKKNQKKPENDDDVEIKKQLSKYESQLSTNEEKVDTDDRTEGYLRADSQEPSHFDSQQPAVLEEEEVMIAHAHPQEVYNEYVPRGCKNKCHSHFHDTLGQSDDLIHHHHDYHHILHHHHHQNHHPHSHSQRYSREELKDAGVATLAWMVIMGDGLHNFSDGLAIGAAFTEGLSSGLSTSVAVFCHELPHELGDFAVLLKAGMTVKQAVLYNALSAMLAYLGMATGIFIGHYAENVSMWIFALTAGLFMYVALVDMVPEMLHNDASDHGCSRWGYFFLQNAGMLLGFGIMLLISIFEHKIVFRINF

[3] = target: T1, human LIV-1; test: FACS, HEK293/H_LIV-1 cells
Procedure: as §1, §2

[4] = target: T1, human LIV-1; test: cell-based or functional assay; remark: listed apart in the source
[5] = target: T1, human LIV-1; test: cell-based or functional assay; remark: listed apart in the source

B1: 282G5A2 (antibody, V domains shown)
VH: QVQLQQSGAELVRPGTSVKVSCKASGYALTKYLIEWIKQRPGQGLEWIGVINPGNAGNNYNEKFKGKATLTVDQSSSTAYMQLSSLTSEDSAVYFCARRGRDYAMDNWGQGTSVTVSS
VL: EIVLTQSPAIMSASLGEKVTMSCRASSSINYIYWYQQKSDASPKLWIYYTSNLAPGVPARFSGSGSGNSYSLTISSMEDEDAATYYCQQFTSSPLTFGAGTKLELK
notes: Tested as chimeric antibody
EC50 [1]: 0.87 nM | Top (MFI) [1]: 13000 MFI | Cell viability(%) [2]: 8.58% | Cytotoxicity IC50 [2]: 12.1 nM | EC50 [3]: 1.12 nM | Top (MFI) [3]: 19700 MFI | Internalization EC50 [4]: 41.2 nM | Internalization Top (RFU) [4]: 227000 RFU | ADCC reporter EC50 [5]: 1.2 nM | ADCC reporter Top (RFU) [5]: 11300 RFU

B2: 47G1B10 (antibody, V domains shown)
VH: QVQLKQSGPGLVQPSQSLSITCTVSGFSLTTYGVHWVRQSPGKGLEWLGVIWTGGTTDYNAAFISRLSISKDNSKSQVFFKMNSLQANDTAIYYCARGPSSYWGQGTLVTVSA
VL: DIVMTQSQKFMSTSVGDRVSVTCKASQNVDTNVVWYQQKPGQSPKALIHSASYRYSGVPDRFTGSGSGTDFTLTISNVQSEDLAEYFCQQYNNYPWTFGGGTKLEIK
notes: Tested as chimeric antibody
EC50 [1]: 0.3 nM | Top (MFI) [1]: 36700 MFI | Cell viability(%) [2]: 17.7% | Cytotoxicity IC50 [2]: 1.53 nM | EC50 [3]: 0.37 nM | Top (MFI) [3]: 60900 MFI | Internalization EC50 [4]: 10.1 nM | Internalization Top (RFU) [4]: 178000 RFU | ADCC reporter EC50 [5]: 0.3 nM | ADCC reporter Top (RFU) [5]: 191000 RFU

B4: 127A2B9 (antibody, V domains shown)
VH: EVQLQESGPSLVKPSQTLSLTCSVTGDSITSGYWNWIRKLPGNKLEYMGYISYSGSTYYNPSLKSRISITRDTSKNQYYLQLNSVTTEDTATYYCARIYYDYDGYFDVWGAGTTVTVSS
VL: DIVMTQAAPSVPVTPGESVSISCRSSKSLLHSNGNTFLYWFLQRPGQSPQLLIYRMSNLASGVPDRFSGSGSGTAFTLRISRVEAEDVGVYYCMQHLEYPYTFGGGTKLEIK
notes: Tested as chimeric antibody
EC50 [1]: 3.92 nM | Top (MFI) [1]: 21700 MFI | Cell viability(%) [2]: 17.8% | Cytotoxicity IC50 [2]: 2.25 nM | EC50 [3]: 4.03 nM | Top (MFI) [3]: 34600 MFI | Internalization EC50 [4]: 51.8 nM | Internalization Top (RFU) [4]: 558000 RFU

B5: 108H1D4 (antibody, V domains shown)
VH: EVKLVESGGDLVQPGGSRKLSCAASGFTFSDYGMAWFRQAPGKGPEWVAFISNLAYNIYYADTVTGRFTISRENARNTLYLEMSSLRSEDTAMYYCAREGGITTVPATDYFDYWGQGTTLTVSS
VL: DIQMTQTTSSLSASLGDRVTFSCRASQDIRNYLNWYQQKPDGTVKLLIYYTSRLHSGVPSRFSGSGSGTDYSLTINNLEQEDLATYFCQQVNALPLTFGAGTKLELK
notes: Tested as chimeric antibody
EC50 [1]: 130 nM | Top (MFI) [1]: 762 MFI | Cell viability(%) [2]: 17.3% | Cytotoxicity IC50 [2]: 0.7 nM | EC50 [3]: 0.9 nM | Top (MFI) [3]: 8800 MFI | Internalization EC50 [4]: 4.8 nM | Internalization Top (RFU) [4]: 511000 RFU | ADCC reporter EC50 [5]: 8.3 nM | ADCC reporter Top (RFU) [5]: 139000 RFU

The remaining binders from weak to strong by EC50 [1], led by results:

EC50 [1]: 1.33 nM | Top (MFI) [1]: 2340 MFI | EC50 [3]: 0.43 nM | Top (MFI) [3]: 7340 MFI | Internalization EC50 [4]: 4.2 nM | Internalization Top (RFU) [4]: 554000 RFU | ADCC reporter EC50 [5]: 4.1 nM | ADCC reporter Top (RFU) [5]: 101000 RFU
B6: 109C9D4 (antibody, V domains shown)
VH: EVKLVESGGGLVQPGGSRKLSCAASGFTFSDYGMAWVRQAPGKGPEWVTFISNLAYSIYYADTVTGRFTISRENAKNTLYLEMSSLRSEDTAMYYCARVEENGNYFDYWGQGTTLTVSS
VL: DIQMTQTTSSLSASLGDRVTIRCRASQDIGIYLHWYQQKPDGTVKLLIYYTSRLHSGVPSRFSGSRSGTDYSLTIGNLEQEDIATYFCLQGNTIPPTFGGGTKLEIK
notes: Tested as chimeric antibody
Cell viability(%) [2]: 18.5% | Cytotoxicity IC50 [2]: 0.69 nM

EC50 [1]: 0.21 nM | Top (MFI) [1]: 37300 MFI | EC50 [3]: 0.24 nM | Top (MFI) [3]: 61800 MFI | Internalization EC50 [4]: 16.9 nM | Internalization Top (RFU) [4]: 171000 RFU | ADCC reporter EC50 [5]: 0.2 nM | ADCC reporter Top (RFU) [5]: 151000 RFU
B3: 39D10B2 (antibody, V domains shown)
VH: B2 VH with I92M
VL: B2 VL
notes: Tested as chimeric antibody
Cell viability(%) [2]: 16.2% | Cytotoxicity IC50 [2]: 1.54 nM
